Reference: publication PMC9643425, “Structural model for ligand binding and channel opening of an insect gustatory receptor” (The Journal of Biological Chemistry, 2022)
“And” between values parts separate entries of the source, which are not always exact repeats. Equal entries are not always repeated. Blank lines part the entries; values can stand above or below the molecule they belong to.

Tests used:
BmGr9 = biological target: T1, BmGr9 (Bombyx mori, UniProt B3GTD7, I440C); assay: two-electrode voltage clamp in Xenopus oocytes, […] MTSET, cysteine modification; assay type: cell-based
T1 construct: gene Gr9; full-length
T1 sequence (B3GTD7 1-449 I440C): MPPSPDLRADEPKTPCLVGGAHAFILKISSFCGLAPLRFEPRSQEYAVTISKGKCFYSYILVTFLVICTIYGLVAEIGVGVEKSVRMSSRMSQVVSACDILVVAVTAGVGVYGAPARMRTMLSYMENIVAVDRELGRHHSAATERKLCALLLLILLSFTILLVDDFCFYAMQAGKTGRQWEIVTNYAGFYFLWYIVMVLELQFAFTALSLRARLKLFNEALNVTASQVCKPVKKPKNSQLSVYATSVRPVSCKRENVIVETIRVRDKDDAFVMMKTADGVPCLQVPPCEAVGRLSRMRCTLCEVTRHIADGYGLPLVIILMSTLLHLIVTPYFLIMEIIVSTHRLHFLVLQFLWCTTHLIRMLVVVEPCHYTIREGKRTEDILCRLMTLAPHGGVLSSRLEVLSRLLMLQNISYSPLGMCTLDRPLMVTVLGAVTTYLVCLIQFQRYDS

[1] = biological target: BmGr9 silkworm gustatory receptor (Bombyx mori (silkworm)); assay: cross-linking; HEK293T cells expressing BmGr9 incubated with various concentrations of disuccinimidyl suberate (DSS) at 37 °C for 15 min; lysed in 0.1% RIPA buffer; SDS-PAGE with 5 M urea; Western blot with anti-BmGr9 antibody
[2] = biological target: meGFP-BmGr9 (Bombyx mori (silkworm)); assay: single-molecule imaging, counting of photobleaching steps (TIRF microscopy); meGFP-BmGr9 on the plasma membrane of Xenopus oocytes; bleaching steps at single spots (n = 569) fitted with binomial distributions of tetramer, pentamer and hexamer models

Molecule: C[N+](C)(C)CCSS(C)(=O)=O [MTSET, 2-(trimethylammonium)ethyl methanethiosulfonate, bromide]
two-electrode voltage clamp in Xenopus oocytes, 2.5 mM MTSET, cysteine modificat (BmGr9): whereas the response of I440C was markedly inhibited by MTSET application

stoichiometry N [1]: 2 and 4
Molecule: BmGr9 silkworm gustatory receptor

stoichiometry N [2]: 4
Molecule: meGFP-BmGr9 (receptor)
